PMC9768450

Assays:
Test in all cases: purified protein
[1] = system: CCC(=O)SCCNC(=O)CCNC(=O)[C@H](O)C(C)(C)COP(=O)(O)OP(=O)(O)OC[C@H]1O[C@@H](n2cnc3c(N)ncnc32)[C@H](O)[C@@H]1OP(=O)(O)O; details: co-substrate acetate 20 mM, 100 mM Tris-HCl pH 7.8, 5 mM MgCl2, 5 mM DTT, 55 °C
O=C(O)CCCO = details: co-substrate acetyl-CoA 1 mM, 100 mM Tris-HCl pH 7.8, 5 mM MgCl2, 5 mM DTT, 55 °C
CCC(=O)O = details: co-substrate acetyl-CoA 2 mM, 100 mM Tris-HCl pH 7.8, 5 mM MgCl2, 5 mM DTT, 55 °C
[2] = system: CC(C)(COP(=O)(O)OP(=O)(O)OC[C@H]1O[C@@H](n2cnc3c(N)ncnc32)[C@H](O)[C@@H]1OP(=O)(O)O)[C@@H](O)C(=O)NCCC(=O)NCCSC(=O)CCC(=O)O; details: co-substrate propionate 20 mM, 100 mM Tris-HCl pH 7.8, 5 mM MgCl2, 5 mM DTT, 55 °C
[3] = system: CC(=O)SCCNC(=O)CCNC(=O)[C@H](O)C(C)(C)COP(=O)(O)OP(=O)(O)OC[C@H]1O[C@@H](n2cnc3c(N)ncnc32)[C@H](O)[C@@H]1OP(=O)(O)O; details: co-substrate succinate 40 mM, 100 mM Tris-HCl pH 7.8, 5 mM MgCl2, 5 mM DTT, 55 °C

## succinyl-CoA:acetate CoA-transferase encoded by the AHF96498 gene (AHF96498 gene product) (Desulfurella acetivorans A63)
[1]
  Km: 1.1 ± 0.3 mM
  Vmax: 669 µmol/min/mg
  kcat/Km: 584000 M⁻¹ s⁻¹
O=C(O)CCCO
  Km: 0.4 ± 0.1 mM
  Vmax: 7.7 µmol/min/mg
  kcat/Km: 24000 M⁻¹ s⁻¹
CCC(=O)O
  Km: 3.9 ± 0.8 mM
  Vmax: 875 µmol/min/mg
  kcat/Km: 223000 M⁻¹ s⁻¹
[2]
  Km: 1.2 ± 0.3 mM
  kcat/Km: 14000 M⁻¹ s⁻¹
[3]
  Km: 0.2 ± 0.04 mM
  Vmax: 90 µmol/min/mg
  kcat/Km: 534000 M⁻¹ s⁻¹
